Consider 1 variant from article PMC5764952 (2018).

B1: Untagged murine saposin A (SapA) [mouse] / His6-tagged murine β-galactocerebrosidase (GALC) [modified: glycosylated; glycosylated] [mouse] (parent)
chain 1: MGKSLPCDICKTVVTEAGNLLKDNATQEEILHYLEKTCEWIHDSSLSASCKEVVDSYLPVILDMIKGEMSNPGEVCSALNLCQSLQE
chain 2: YVLDDSDGLGREFDGIGAVSGGGATSRLLVNYPEPYRSEILDYLFKPNFGASLHILKVEIGGDGQTTDGTEPSHMHYELDENYFRGYEWWLMKEAKKRNPDIILMGLPWSFPGWLGKGFSWPYVNLQLTAYYVVRWILGAKHYHDLDIDYIGIWNERPFDANYIKELRKMLDYQGLQRVRIIASDNLWEPISSSLLLDQELWKVVDVIGAHYPGTYTVWNAKMSGKKLWSSEDFSTINSNVGAGCWSRILNQNYINGNMTSTIAWNLVASYYEELPYGRSGLMTAQEPWSGHYVVASPIWVSAHTTQFTQPGWYYLKTVGHLEKGGSYVALTDGLGNLTIIIETMSHQHSMCIRPYLPYYNVSHQLATFTLKGSLREIQELQVWYTKLGTPQQRLHFKQLDTLWLLDGSGSFTLELEEDEIFTLTTLTTGRKGSYPPPPSSKPFPTNYKDDFNVEYPLFSEAPNFADQTGVFEYYMNNEDREHRFTLRQVLNQRPITWAADASSTISVIGDHHWTNMTVQCDVYIETPRSGGVFIAGRVNKGGILIRSATGVFFWIFANGSYRVTADLGGWITYASGHADVTAKRWYTLTLGIKGYFAFGMLNGTILWKNVRVKYPGHGWAAIGTHTFEFAQFDNFRVEAAR

In the experiment the parent is B1. The experiment can be described thus: pull-down (immobilised GALC, Coomassie SDS-PAGE, quantified). The following applies: with His6-tagged murine β-galactocerebrosidase (GALC) [modified: glycosylated, in the presence of Tween-20, n = 3, read off a plot.
chain 1 N24Y: the ratio to parent is 1.3.
